Laboratory results reported in patent publication US10980859B2, “In vivo individualized systemic immunotherapeutic method and device” (Hangzhou Converd Co., Ltd., priority 2013, dated 2021).

Experiments:
[1] = tested on: CD8+ TIL infiltration in B16 tumor; experiment: Immunofluorescence analysis of CD8+ TIL infiltration in tumor; type: in vivo, C57BL/6 mice; conditions: B16 tumor-bearing mice
Description: Systemic Immunotherapeutic Combination Therapy (for FIG. 10, 11, 12)
72 male 6-8 weeks old C57BL/6 mice were subcutaneously (s.c.) inoculated on their back of the ribs with 2×10^6 B16 cells, and then monitored daily for tumor growth. These tumor-bearing animals were randomly numbered and then divided into 9 groups depended on the random number. Indicated groups were subjected to OVs (H101, 4×10^9 VPs) therapy i.t. and/or GM-CSF s.c. and/or PD-L1 mab (eBioscience, Cat#16-5982-85) i.p. or PBS (pH 7.4) only s.c. at indicated time points. After day 13, all animals were sacrificed and analyzed. Grouping and experiment design are illustrated in FIG. 17.
Immunofluorescence Analysis of CD8^+ TIL Infiltration in Tumor Using Systemic Immunotherapeutic Combination Therapy (for FIG. 12)
The level of CD8^+ TIL infiltration in tumor was determined by immunofluorescence staining. […] After the treatment with antifade mounting medium, fluorescence signals were detected under fluorescence microscope (BX43, OLYMPUS). Fluorescence images were analyzed using Image-Pro Plus 6.0 software and the histogram was made by GraphPad Prism 5 software and p<0.05 was considered statistically significant.

[2] = tested on: Ly-6G+ DC precursors and CD11b+ DC in spleen; experiment: Flow cytometric analysis of GM-CSF induced expansion of DC and DC precursor in normal animals; type: in vivo; conditions: s.c., healthy C57BL/6 mice
Procedure: Spleen Tissue Dissociation (for FIG. 6-8)
Briefly, mice were killed, and spleens were removed into cold culture medium and processed immediately. Surrounding mouse tissue and fat were removed. The spleens were minced into 2-3 mm fragments, and then crushed in cold culture medium using a flat tail of syringe piston. The spleen fragments were mixed up and down several times using a 1.5 mL micropipette with a tip cut to a diameter adapted to tissue fragment size. After that, the fragments were filtered through a […] nylon mesh cell strainer (BD Biosciences, San Diego, Calif., USA). The released cells were centrifuged at 1200 RPM for 2 min and stored in cold culture medium with 30% (v/v) FCS at 4° C. All cells from all incubation periods were pooled and counted.
Flow Cytometric Analysis of GM-CSF Induced Expansion of DC and DC Precursorin Normal Animals (for FIG. 6, 7)
52 male 6-8 weeks old C57BL/6 mice were randomly numbered and then divided into 13 groups depended on the random number. 12 groups were subcutaneously (s.c.) administered murine GM-CSF (PeproTech, Cat#96-315-03-1000) 2 μg on their back of the ribs, single injection from day 1 to 12 respectively. The last group was control. After 13 days, all animals were sacrificed. […]

[3] = tested on: CD11b+ DC in spleen; experiment: Flow cytometric analysis of GM-CSF induced expansion of DC in B16 melanoma cell murine model; type: in vivo, C57BL/6 mice; conditions: s.c.
Description: Animal Model (for FIGS. 5-11)
The male immunocompetent C57BL/6 mice were purchased from Shanghai Experimental Animal Center (Shanghhai, China) and maintained in the animal facility at Tongji University (Shanghai, China) according to the animal research committee's guidelines of Tongji University. To establish the tumor-bearing animal model, the male immunocompetent C57BL/6 mice 6-8 weeks old, were subcutaneously (s.c.) inoculated on their back of the ribs with 2×10^6 B16 cells, and then monitored daily for tumor growth. After 6 days (when the tumors grew up to a mean tumor volume of around 70-100 mm^3), these tumor-bearing animals were randomly numbered and then divided into groups depended on the random number. Tumor volume was measured with a caliper each three days and calculated using the following formula: [L×W^2]/2 (L=length of tumor; W=width of tumor). […]
Briefly, mice were killed, and spleens were removed into cold culture medium and processed immediately. […] All cells from all incubation periods were pooled and counted. […]
63 male 6-8 weeks old C57BL/6 mice were subcutaneously (s.c.) inoculated on their back of the ribs with 2×10^6 B16 cells, and then monitored daily for tumor growth. […] After another 1.5, 2.5, 3.5 and 4.5 days, indicated groups were sacrificed and analyzed, respectively. […]

B1: murine GM-CSF: murine granulocyte-macrophage colony-stimulating factor (PeproTech, Cat#96-315-03-1000) (protein, UniProt P01587 18-141, looked up)
Granulocyte-macrophage …: APTRSPITVTRPWKHVEAIKEALNLLDDMPVTLNEEVEVVSNEFSFKKLTCVQTRLKIFEQGLRGNFTKLKGALNMTASYYQTYCPPTPETDCETQVTTYADFIDSLKTFLTDIPFECKKPGQK
[1]
  CD8+ TIL infiltration in tumor: induces medium CD8^+ TIL infiltration
[2]
  CD11b+ DC in spleen: induces expansion of CD11b^+ DC at day 2-4
  Ly-6G+ DC precursors in spleen: induces expansion of Ly-6G^+ DC precursors at day 1
[3]
  CD11b+ DC in spleen: induces up-regulation of CD11b^+ DC in spleen at Day 3.5
